Results reported in paper PMC10121219.
pKd: −log10 of the molar value.

Biological target: insulin receptor ectodomain (UniProt P06213)
Assay: SPR; insulin receptor immobilised; svPDE flowed at 0.25, 0.5, 1.0, 2.0, 4.0 and 8.0 uM; KD by steady-state affinity model; apparent

Substance: snake venom phosphodiesterase (svPDE) from Naja atra (from UniProt A0A2D0TC04 1-830)
- pKd: 5.74
